Assay: label from the status in PepcDB records
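Further: failed if final PepcDB status was selected cloned or expressed and not failed if soluble or beyond.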

Protein production, failed:
MKKGLTFSITSAALFFGMNHVASADQIHTVKEDAKLTDIAQTFATTTTEIQNLNHLQNRDYVQVGETIVLPDSDIVEVKDGDTIKAIAERHQMTMNQLYQLNPNLGEVIYPGQLVAVSEKGSAHLNNQLQQIFNSHEAVQPTAQINDDERNKAENNTIRNVRTSGNITPSATQTWQNNDYSASDRQQVSNTTANEQVTSNYQYSPVSHASNGSNYYDWGQCTYYAFDRRQQLGKSVGNLWGNANNWASAAQQSGYQVNNTPEVGAIFQSTAGNYGHVGVVESKNADGSIVVSEMNWQGVGQKSYRTIHNTGQYNYIHLEHHHHHH, MKKGYMYIALTTIIFSTMEIALKLVSKSFNPIQLNFTRFFIGGLFLVPFALNTLHKRHLSISTKDLRFFALLGLLGTVISMSLYQLAVQNTKASVVAVLFSCNPVFVTILAFFLLREAIHKNNIAALILEVIGTIVIIDPLNTKLSILGLALTIASTLIFAAYGVFGKKKCAKYGGIVVTCFGFLFGSIEMLVLIGITHITPIANLFSSNGIAIFSNIPLFTGYSLKNLPLMCFICLINTGAGFACYFKAMEETSAQTTSLVFFFKPILAPILALILLHEIIPVNMIIGILFILAGSISSILPELLAQRQTKLEKTA, MKKIATATIATAGIATFAFAHHDAQAAEQNNDGYNPNDPYSYSYTYTIDAEGNYHYTWKGNWSPDRVNTSYNYNNYNNYNYYGYNNYSNYNNYSNYNNYNNYQSNNTQSQRTTQPTGGLGASYSTSSSNVHVTTTSAPSSNGVSLSNARSASGNLYTSGQCTYYVFDRVGGKIGSTWGNANNWANAAARSGYTVNNSPAKGAILQTSQGAYGHVAYVEGVNSNGSIRVSEMNYGHGAGVVTSRTISASQAASYNYIHLEHHHHHH, MKKIFVIITTLLAVAIIIGSIITVVFSQRQAQTFKIQQQQFVKKPIPTLFLHGFGGSANSEKFMVKQAEKRGVTKDIITAYVSKDGAVTFKGKLRKDAVNPIVKIELENNRQGYLDKNAAWFKNVLTKLQSEYNFDKFNFVGHSMGNLTFAQYMMTYGNDKSLPQLNKQVNIAGTFNGVLNMNEDVNEITVDKDGKPSRMNQPYQQLRVLKDIYKGKGIEVLNIYGDLKDGTHSDGRVSNSSSKSLKYLLGNSPKSYRESKYEGEPAQHSQLHENENVANELIDFLWKK, MKKIGILTSGGDCGGLNAVIKGAALMALNKGLELYVIPNGYAGLYNLLNQDRLVRLDEARLDQFQASFAGSEAGHSRVKIKAISNPDKYNRIKVGMKKFDLDALIISGGDDSGSVMIDLNHNGIQCIHCPKTMDLDLQTYSVGGDSTINRIAQFVEDLKTTGRTHNRVLVTEVFGRYAGHTAFRSGVAAEADCILIPEIPVDWDVVYEHIVERFTRRIRQSDVHSGTYTIVVAEGMKNADGTDIVDESAGIDAFGHKKLAGAGKYVCQEIKKRFKTDPRMPQFMKDTGMFVEGIYEIPEVREVHPGHLVRAGHSSAYDINFGFEAGAAAVLLLLEGKTGVTISKVKGRKIEYIEASKAIEQRYVDLDQVAMYESIGTCFGRTPAAYEPILREVDGVYERIY, MKKIHLNKWKHKTSLYLMLFCLSLPLALTPLSVSATEKETESEQTAPTSQKDASETTSETQTVESSTNDQNQNNSTISLPESSSTTSLAPSESLTSDSKKLAQKEEVVASTTVAEPKAAASSTISVPDPNLKQTILSTLGLATTAELTQTDMDKLTNLTLNSVDIYSLVGLEHATNLSSIYINVNNKITDFTPLESLTKLTFVTLQTSSLTSDNFPNLTASQGLTNLSIGGTSVDNSVLAKIVNLKALVRLYMDSNMNITNIEPLKVLPNLKSLSVQFCGITDFTVIKDFPIMSDLAAFGQNTGRNDPPTTVTRSSLKYNEDEQSVYIPFSMMPNRMTNFDGYIPPFSTSNSASNTYFDFNGTQLPASRLQIDDNGITINSVSPEEYQGIKSFEYNARLNNPAGTYAVPDGYTFYAISSGTYLHQFDVVDDGAPVTVKYQDENGQELAPSELLNGYVGATYNSKELSFQGYSLIKVDGDATGKFTDSPQTVTYIYQKNAKLLGQVTVKYIDTDGKALFGDVIQTGNIGETYHTEKKELTGYTFKNIIGNASGQYTNSPQTVTYVYEKNANPNKPEEVIPDSSDKNNVNPDSRENETTKGSKTVKDKESVVTSKEKNLPETGDKEQGMKKITLFGSFLLILGSLVLFIRFRKVD, MKKIIGLLFIVSCCILLSPTIKVQADTVPLPAPIIEAFPVEAIAEAIAEELDKDSVNDIITQEDLDTITILPFPGLNLTGEDLNVLNNEVFTNATELAIWSNNIGEMPDLSESLPALETIKASDANITQFPNANYPNLTTVDFSKNNFGINIPEFIGMEKLVSINMEQAELSGYIAKDIWMNMPNLETLLLRDNHLISIPEDIFLTGQIRNRSFDGQTATYPPRTIKQGENLDVFVPFIYQALDFIAPAPGNEMIINDNGEFLYKPVYPSYTGSYMYTIETAGLEPGEHLLEISLNYNGSEYLGWYDFPVTITE, MKKILGTLLAVLFSFMAINDSAAQNTVLRFNKDGKFKIVQFTDVHFKYGNPASDVALERIGEVLDAEHPDLVIFTGDVVYSSPADKGMLQVLGQVERRHLPFVVTFGNHDNEQGKTRAELYDLIRGVAGNLLPDRGASPSPDYILTMKSSADASKDAALLYCMDSHSYSSLKDVDGYAWLTFGQVSWYRAQSAAYTARNGGKPYPALAFFHIPLPEYNEAAANENAILRGTRMEKACAPQLNTGMFAAMKEAGDVMGVFVGHDHDNDYAVMWKNILLAYGRFTGGNTEYNHLPNGARVIVLNEGTRTFETWIRQKGGVVDSTSYPSDYVKDDWRKR, MKKISILFIFSLILGLFVSEVSAAGPRLKKRPKHVVLVAFDGLSAVAIRNHPMPNFNRLMKEGASTLNNRSILPSSSAPNWASMFTGVGPELHGYTTWGSKTPEIPPFITNQYGRFPGLYGLLRDTHPKAELGYIYEWDGMKYLVDSLAINHFVHAPQTKDHPKGATQFAVNYLKEKKPMYCAVIFEYPDHTGHTYKWESKEYYEKLDELDGYLGEIVAAIEEAGMMDETVIILTADHGGIGTNHGGKTLNEMETPLVFYGKGVKKNYKITESTMVIDVPATEAWLLGVEPHEAWLGNPVTTAFFTK, MKKKAALATLAMLPLGVVNAHADGDIGIVTINYLNVRNEPTAESSIAFVAKKDDKVLIKDSSNGWYKIKAESGQEGWASSKYIAKSNSDSLRTSTNKEKQVISNSLNMRNGAGTSYRVITVLKKGQKVEVISESNGWSKIKYDGRLGYVSSSYLGDVSNSTNKSKTKQVNTTSLNVRSGPNTSYGLLGKLPKGSKVEVISESNGWSKIKYNGKDAYVSSMYLSDVSQSNSDNSSQSNDKKNTDKVVNTASLNVRSGPGSTYSKLGKVYKGSKVTVLSESSGWAKINFNNKEAFVVGNYLSTSADTSNNNSNSNYDNSSNSNGNNSSSSGQVNGMSGISGAKIDYKSLSYTLESHISKQVEKAASGGNVIAPSNRKSTPSPEFSTFSAQRTSSFVNASSSDIEYYLNPKNFTNTTKGMMQFLKINSYRDGISESSLNSYLNGLSSSVFKNQGAAFINAAKKYNIDVVYLVSHAMWETAYGKSTLAQGQTLTSYKGQPLSKPVKVYNFFGIGAIDKSANVSGAEAAYSNGWTSVETTIDGSAKWISQNYVNSSKYNQNTIYKMKWNYDYTWHQYATDVNWANGISGIMENLIGLYRGGSSLVFEVPQYK, MKKKLDRREAVRSEKKTLPWRKKRSSRGCCWRRRVATAVGEEESRRLMEKTRRDGEEEEVTSDGGSWNGKKKLYRRRRRYLGEETDRLAAEAGEEELRRLLENKRRGREEEERRRRNQIEEEERRRRRK, MKKKNILFFLLCFLLTSLSAQTLEQARGMYGRGQYAEAKPVFQKYVKSQPANGNYNLWYGVCCLKTGNAAEALKYLETAVKKRIPSGQLYLAQTYNDLYRFQDAVDCYEEYIADLSKRKKPTEEAEQLLEKAKGNLRMLKGVEDVCVIDSFVIDKANFLKAYKISEESGKLFTYNDYFKTKGYHPGTVYETEIGNRIYYSEQGEESLNILSKTKMLDEWSQGKPLPGSINASGNANYPYVLSDGVTIYYASDGDGSMGGYDIFVTRYNTNTDTYLVPENVGMPFNSPYNDYMYVIDEYNNLGWFASDRYQPEDKVCIYVFVPNDSKRTYNYEAMEPEKMIELAQLHSLESTWKDSKIVDDARQRLEAVINHKPAVEQNFDFEFIIDDHSTYHHLTDFKSPKAKQLYLKYEQMEKDYRQQTGKLKSQREGFARSNKDEQSKMAPAIRDLEKRVLQMSEELDKQAIEVRNAEKQNLK, MKKKYFGTDGIRGKVGDFPITPDFFLRLGYAVGKVLLASDRQLAADKRPTVLIGKDTRISGYMLESALEAGFSAAGVDVLLSGPLPTPAVAYLVRALRIQAGAVISASHNPFDDNGIKFFSSAGSKLPDSMELQIEAELDQPMKTTPSIKLGRVQRLRDAAGRYIEFCKSTFPNQLDLRGLRIVVDCANGADYHIAGHVMHELGADVITTHASPDGFNINYECGATHIETLQGSILQHKADIGIAVDGDGDRVLMVSREGVLYDGDSLAYIIAKHRQQLGELQGGVAGTLMTNLAVEQAFERLGIPFARANVGDRYVSELLQQNDWYLGAENSGHIICRDKHTTGDGIISALQVLYALRDTGLTLADFMRDVPFFPQRLINVKVSGNFDFRSNPAVAACKNEAEQALGNDGRILLRASGTEPLIRVMVEGKVLQQTDYWAEKIAETIRQQAASSMTGS, MKKLFTNTIFIQSNLERLSTILKSPQNLSKWVPDINSVSPKDDYFLISRSSSALNNFEKISVTSQDNSIIYTSTGGRLEYELHFDLTNKDDRTLVEQTLLVDETLTKLPLTLLAPIAKHAFHENLSSLERLIAISLEHHHHHH, MKKLINIILLSLIFVFCFNLKVLANDNLESSKEKIDNDSRIERFYDYINNLETEEDILGNMSAKEYIMNYLESGEDPITLKKIGASILSYIFRELNIVLKFIASILVIALLSALLKNLQDAFNIEEGVTQIAFFACYALLIMLLTKSFFISLNLGKEVLTSIIDFMNVIVPVIVMLIATSGGVTSAVTIDPIVLGAVSITPRIYTYFLFPLILAYFTLQFVNNLSSEFKIDRMCKFIKQVVMISQGFILTIFVGILTLRGMTADTLDAVAVKTVKFAVDNFVPIVGKAFSDAITTVAGYSLAMKSVITSLGVIVIVVIVIYPIIKIGLMAICFKLTSAVIEPVVDSKISSSVETVGEALFMIMSCIISVSIMFFIMASMMATAGNFIVGG, MKKLLTFIMACVISLGATAQISEKAFEKWHQNKYSMFIHFGLYSELGGVWEGNPVTRGYSEQIQSFAGIFSDWYGDTALRFNPTLFDADAIVSLAKEAGMRSIIITTKHHDGFCMFRTATTDYNSYDATPGKRDFIKEMAEACKRGGINFGIYFSLIDWHFPQAYPISSHNCDFITPQHHEFTKAQVTELLTNYGPISELWFDMGSNTPEQSKELYQLVHRLQPDCMVSGRLGNDQYDFSVMADNTYPEGSLQTAWQTAASMFDETWSYRSWQKRGDVHTKAMEKLRSLINVVSHGGNFLLNIGPKGDGSVVPFEREVLKEIGIWLKKNGEAIYGTEASPFREQFEWGTITRKGNNLYLILSGNRPADGKITLNVPGCKLQKADIKAIQKGQEMIFTLPADAYGKDIQVICATFDQPVKPQPMAAQRTPNYSYSCFDYYSNYRSTVSYQWSINKSNLNALEFTYTPQENGKELLVEVDGIPYTVTLDAGKAQALNLPSKTVWGQRYFCGPGSGLFDAPATIHTDPDKAPVRKGQWKEVNEEKAMFPSNILESYFLMQQVESPKAQDILVDVGAGNGIEIYLNGKSVMKHLNPYRCKFREEKVLLPLQKGSNQIVVRIYNRFEKETGYLLRPSAEQVIYKQKFTLPQVAKGKVHTVVVKQNNLPSIHKDTELSNLKVEAK, MKKLVHLSDFHYDGLRLSEEMLAEAIAVSNQVQPDLVLLTGDYVTTTPQPIHQLAKRLQKLQSHAGIYAILGNHDLYQKNSKTEITQALTKAGIQVLWNEIAYPLGEELPIVGIVDYYYREFNPQLLFNQLEPTTPRIVLCHNPDTAAMLQGWRVDLQLSGHTHGGLEHHHHHH

From a protein production outcome set (Wang et al. 2014)
